Experimental data as given in publication PMC5014685 (Structure (London, England : 1993), 2016).

B1: IQGAP2 GTPase-activating protein (GAP)-related domain (residues 875-1257) (domain or fragment, human)
chain: GAMSKERRKTLETYQQLFYLLQTNPLYLAKLIFQMPQNKSTKFMDTVIFTLYNYASNQREEYLLLKLFKTALEEEIKSKVDQVQDIVTGNPTVIKMVVSFNRGARGQNTLRQLLAPVVKEIIDDKSLIINTNPVEVYKAWVNQLETQTGEASKLPYDVTTEQALTYPEVKNKLEASIENLRRVTDKVLNSIISSLDLLPYGLRYIAKVLKNSIHEKFPDATEDELLKIVGNLLYYRYMNPAIVAPDGFDIIDMTAGGQINSDQRRNLGSVAKVLQHAASNKLFEGENEHLSSMNNYLSETYQEFRKYFKEACNVPEPEEKFNMDKYTDLVTVSKPVIYISIEEIISTHSLLLEHQDAIAPEKNDLLSELLGSLGEVPTVESFLGEG
B2: GRD1 6xAla mutant (N1011A, N1015A, Q1016A, R1017A, E1018A, T1291A) (domain or fragment)
chain: GAMASKEKREKLEAYQHLFYLLQTNPTYLAKLIFQMPQNKSTKFMDSVIFTLYAYASAAAAEYLLLRLFKTALQEEIKSKVDQIQEIVTGNPTVIKMVVSFNRGARGQNALRQILAPVVKEIMDDKSLNIKTDPVDIYKSWVNQMESQTGEASKLPYDVTPEQALAHEEVKTRLDSSIRNMRAVTDKFLSAIVSSVDKIPYGMRFIAKVLKDSLHEKFPDAGEDELLKIIGNLLYYRYMNPAIVAPDAFDIIDLSAGGQLTTDQRRNLGSIAKMLQHAASNKMFLGDNAHLSIINEYLSQSYQKFRRFFQTACDVPELQDKFNVDEYSDLVTLAKPVIYISIGEIINTHTLLLDHQDAIAPEHNDPIHELLDDLGEVPTIESLIGESS
B3: human hydrolase deficient (Q61L) Cdc42 (residues 1-177), GTP-loaded (domain or fragment)
chain: not shown
B4: GRD2 6xAla mutant (N924A, N928A, Q929A, R930A, E931A, S1204A) (domain or fragment)
chain: GAMASKERRKTLETYQQLFYLLQTNPLYLAKLIFQMPQNKSTKFMDTVIFTLYAYASAAAAEYLLLKLFKTALEEEIKSKVDQVQDIVTGNPTVIKMVVSFNRGARGQNTLRQLLAPVVKEIIDDKSLIINTNPVEVYKAWVNQLETQTGEASKLPYDVTTEQALTYPEVKNKLEASIENLRRVTDKVLNSIISSLDLLPYGLRYIAKVLKNSIHEKFPDATEDELLKIVGNLLYYRYMNPAIVAPDGFDIIDMTAGGQINSDQRRNLGSVAKVLQHAASNKLFEGENEHLSSMNNYLSETYQEFRKYFKEACNVPEPEEKFNMDKYTDLVTVAKPVIYISIEEIISTHSLLLEHQDAIAPEKNDLLSELLGSLGEVPTVESFLGEG
B5: IQGAP1 GTPase-activating protein (GAP)-related domain (residues 962-1345) (domain or fragment)
chain: GAMSKEKREKLEAYQHLFYLLQTNPTYLAKLIFQMPQNKSTKFMDSVIFTLYNYASNQREEYLLLRLFKTALQEEIKSKVDQIQEIVTGNPTVIKMVVSFNRGARGQNALRQILAPVVKEIMDDKSLNIKTDPVDIYKSWVNQMESQTGEASKLPYDVTPEQALAHEEVKTRLDSSIRNMRAVTDKFLSAIVSSVDKIPYGMRFIAKVLKDSLHEKFPDAGEDELLKIIGNLLYYRYMNPAIVAPDAFDIIDLSAGGQLTTDQRRNLGSIAKMLQHAASNKMFLGDNAHLSIINEYLSQSYQKFRRFFQTACDVPELQDKFNVDEYSDLVTLTKPVIYISIGEIINTHTLLLDHQDAIAPEHNDPIHELLDDLGEVPTIESLIGESS

How the values were obtained:
[1] = target: human hydrolase deficient (Q61L) Rac1 (residues 1-177), GTP-bound (human, UniProt P63000 1-177, Q61L); test: ITC
crystal structure = target: the molecule itself; test: crystal structure
[2] = target: B1; test: crystal structure
[3] = target: B1; test: ITC
[4] = target: B5; test: ITC

binding result [1]	Binder	other results
binds	B1	stoichiometry N (crystal structure): 2
binds	B2	–
–	B3	stoichiometry N [2]: 2 Cdc42 per GRD2; stoichiometry N [3]: 2 Cdc42 per GRD; stoichiometry N [4]: 2 Cdc42 per GRD
binds	B4	–
binds	B5	–
